Biological target: hepatitis A virus (HAV) particles (hepatitis A virus)
Assay: cell-based or functional assay

D1muc-Fc fusion protein (IgVmuc-hIg)
HAV infectivity (neutralization): 2 logs

From patent US20030124114A1
